Measured values taken from patent publication US20110217291A1.
Blank lines part the entries; values can stand above or below the substance they belong to.

Columns and labels:
[1] = molecular target: human IgG1 antibody (Lambda from human myeloma plasma, Sigma-Aldrich) (human); test: SPR (Biacore), IgG1 immobilized at 485 RU, receptor as analyte
[2] = molecular target: human IgG1 antibody (Lambda from human myeloma plasma, Sigma-Aldrich) (human); test: SPR (Biacore 3000), IgG1 immobilized at 458 RU, receptor as analyte, 1:1 model
[3] = molecular target: IgG of IgG Sepharose 6 Fast Flow resin (GE Healthcare); test: batch binding of 293F conditioned media to IgG Sepharose, Western blot quantitation, n=2
[4] = molecular target: human IgG1 antibody (Lambda from human myeloma plasma, Sigma-Aldrich) (human); test: SPR (Biacore 3000), steady state, IgG1 immobilized at 1013 RU, receptor as analyte
[5] = molecular target: IgG of IgG Sepharose 6 Fast Flow resin (GE Healthcare); test: IgG-Sepharose column, 24 h CHO conditioned media, Western blot
[6] = molecular target: IgG of IgG Sepharose 6 Fast Flow resin (GE Healthcare); test: IgG-Sepharose column, one-day conditioned media of CHO cells at 37° C., Western blot
[7] = molecular target: IgG of IgG Sepharose 6 Fast Flow resin (GE Healthcare); test: IgG-Sepharose column, purified protein, Western blot

Chain of untagged recombinant soluble human FcγRIA (P12314 16-282): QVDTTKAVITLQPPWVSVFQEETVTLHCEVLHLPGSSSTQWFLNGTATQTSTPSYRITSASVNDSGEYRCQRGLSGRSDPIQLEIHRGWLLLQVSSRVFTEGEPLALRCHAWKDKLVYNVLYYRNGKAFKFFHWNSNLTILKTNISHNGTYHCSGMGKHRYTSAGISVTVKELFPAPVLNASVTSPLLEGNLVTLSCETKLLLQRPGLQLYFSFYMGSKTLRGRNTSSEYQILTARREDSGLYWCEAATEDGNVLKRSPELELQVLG
Chain of FcγRIA-CH6 (extracellular domain of human FcγRIA with a C-terminal six His tag) (P12314 other isoform, or with tags, fused parts or gaps): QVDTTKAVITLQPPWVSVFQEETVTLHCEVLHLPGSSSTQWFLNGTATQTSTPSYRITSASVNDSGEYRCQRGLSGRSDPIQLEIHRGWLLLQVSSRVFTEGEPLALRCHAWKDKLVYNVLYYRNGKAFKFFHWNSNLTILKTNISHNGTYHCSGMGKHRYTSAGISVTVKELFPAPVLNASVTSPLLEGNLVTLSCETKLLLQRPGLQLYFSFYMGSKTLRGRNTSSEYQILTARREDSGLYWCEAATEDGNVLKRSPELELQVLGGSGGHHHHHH
Chain of aggregated FcγRIA (purified soluble FcγRIA incubated at 37° C.) (P12314 16-282): as the sequence (P12314 16-282) above
Chain of FcγRIIIA-CH6 (soluble monomeric human FcγRIIIA extracellular domain with C-terminal His6 tag) (P08637 other isoform, or with tags, fused parts or gaps): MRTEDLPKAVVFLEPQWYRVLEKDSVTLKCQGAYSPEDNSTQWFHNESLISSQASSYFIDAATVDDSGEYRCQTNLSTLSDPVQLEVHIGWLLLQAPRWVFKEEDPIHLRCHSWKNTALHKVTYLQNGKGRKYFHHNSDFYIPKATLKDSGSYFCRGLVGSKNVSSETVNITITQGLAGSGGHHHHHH

Kd [1]: 0.17 nM
koff [1]: 0.00046 s⁻¹
kon [1]: 2.8e+06 M⁻¹ s⁻¹
Kd [2]: 0.17 nM
koff [2]: 0.00046 s⁻¹
kon [2]: 2.8e+06 M⁻¹ s⁻¹
percent of total expressed in IgG Sepharose flow-through (aggregate amount) [3]: 66%
percent of total expressed recovered from IgG resin [3]: 21%
Substance: FcγRIA-CH6 (extracellular domain of human FcγRIA with a C-terminal six His tag) (from UniProt P12314 16-282) (receptor)

Kd [4]: 1900 nM
Substance: FcγRIIA-CH6 (soluble monomeric human FcγRIIA extracellular domain with C-terminal His6 tag) (from UniProt P12318 34-212) (receptor)

Kd [1]: 0.17 nM
koff [1]: 0.00046 s⁻¹
kon [1]: 2.8e+06 M⁻¹ s⁻¹
percent of total applied bound to IgG-Sepharose [5]: 14%
percent of total applied in the wash (unbound) [5]: 86%
percent of recovered protein bound and eluted [6]: 20%
percent of recovered protein in unbound fraction [6]: 80%
Substance: untagged recombinant soluble human FcγRIA (from UniProt P12314 16-282) (receptor)

Kd [4]: 630 nM
Substance: FcγRIIIA-CH6 (soluble monomeric human FcγRIIIA extracellular domain with C-terminal His6 tag) (from UniProt P08637 18-195) (receptor)

percent of total in bound fraction [7]: 4%
percent of total in unbound wash fraction [7]: 96%
Substance: aggregated FcγRIA (purified soluble FcγRIA incubated at 37° C.) (from UniProt P12314 16-282) (receptor)
